# PMC3391290
# Assays:
# [1] = target: TSHR-LHR-6 chimeric receptor; experiment: radioligand binding; membrane preparations of TSHR wild type, mutants and constructs, 125I-hTSH with increasing unlabelled hTSH; with MAb 311.87 (134 nM) (Table 5)
# [2] = target: TSHR-LHR-6 chimeric receptor; experiment: radioligand binding; membrane preparations of TSHR wild type, mutants and constructs, 125I-hTSH with increasing unlabelled hTSH; with NMIgG (control) (Table 5)
# human thyroid stimulating hormone (hTSH), sequence (P01215 25-116): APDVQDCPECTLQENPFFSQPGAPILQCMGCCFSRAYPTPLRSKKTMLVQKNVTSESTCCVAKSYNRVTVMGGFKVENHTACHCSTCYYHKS
# human thyroid stimulating hormone (hTSH), sequence (P01222 21-132): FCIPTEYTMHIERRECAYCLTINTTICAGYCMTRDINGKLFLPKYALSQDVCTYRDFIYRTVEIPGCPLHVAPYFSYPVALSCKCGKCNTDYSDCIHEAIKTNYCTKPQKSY
substance,measurement,setting,value
human thyroid stimulating hormone (hTSH) (from UniProt P01215 25-116; P01222 21-132) (ligand),Kd with MAb 311.87,[1],0.39 nM
same,Kd,[2],0.27 nM
